Ends that are not written are not given here.
T1: APG293 (human CD95L-T4) (human)
T1 chain: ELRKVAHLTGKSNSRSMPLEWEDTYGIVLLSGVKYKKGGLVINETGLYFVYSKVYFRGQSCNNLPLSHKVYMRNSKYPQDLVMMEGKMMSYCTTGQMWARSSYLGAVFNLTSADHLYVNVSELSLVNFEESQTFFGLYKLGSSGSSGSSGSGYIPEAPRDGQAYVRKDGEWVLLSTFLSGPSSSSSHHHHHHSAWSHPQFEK

T2: peptide C-YMRNSKY (also: immobilized to BSA or ovalbumin)
T2 construct: Printed as 'C-YMRNSKY'; the leading C is read as an added cysteine
T2 peptide: CYMRNSKY

T3: epitope-comprising peptide YMRNSKYPQD (also: coupled to BSA)
T3 peptide: YMRNSKYPQD

T4: APG296 (human CD95L-RB69) (human)
T4 construct: also called recombinant CD95L; human CD95L (APG296)
T4 chain: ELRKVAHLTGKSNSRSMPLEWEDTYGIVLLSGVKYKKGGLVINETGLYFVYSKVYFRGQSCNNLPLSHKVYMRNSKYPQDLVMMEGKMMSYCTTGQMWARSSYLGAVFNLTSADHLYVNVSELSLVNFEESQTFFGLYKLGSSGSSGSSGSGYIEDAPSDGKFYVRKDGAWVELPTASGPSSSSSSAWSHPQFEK

T5: epitope-comprising peptide YMRNSKYPQD (also: coupled to BSA)
T5 peptide: YMRNSKYPQD

T6: APG707 (LIGHT-RB69) (human)
T6 construct: Structurally related TNF-superfamily protein with the same trimerisation scaffold as APG296; also called human LIGHT (APG707)
T6 chain: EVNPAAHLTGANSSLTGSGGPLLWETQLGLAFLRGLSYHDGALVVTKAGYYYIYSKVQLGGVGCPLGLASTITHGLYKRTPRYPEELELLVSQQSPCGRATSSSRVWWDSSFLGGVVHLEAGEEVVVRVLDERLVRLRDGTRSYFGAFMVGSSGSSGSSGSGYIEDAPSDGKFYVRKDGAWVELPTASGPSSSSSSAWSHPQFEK

B1: rabbit monoclonal anti-CD95L antibody clone 145-12 (antibody, V domains shown)
VH: QSLEESGGDLVKPGASLTLTCTASGFSFSSGYDMCWVRQAPGKGLEWIACIDTDNDATYYASWAKGRFTISKPSSTTVLLQITSLTAADTATYFCATTHGDYVAFKLWGPGTLVTVSS
VL: QVLTQTASSVSAAVGGTVTINCQSSQSVYKNNDLSWYQQKPRQPPKLLIYQASKLASGVPSRFKGSGSGTQFTLTIGDLECDDGATYYCAGGYTASIYAFGGGTEVVVKG
notes: Rabbit monoclonal IgG from a hybridoma subclone; Only VH and VL are tied to the clone by name; also called mAB145-12; mAb145-12
B2: rabbit monoclonal anti-CD95L antibody clone 119-4 (antibody, V domains shown)
VH: QSLEESGGDLVKPGGTLTLTCTTSGFSFSDHYWMCWVRQAPGKGLEWIACIYTADSDSYYASWAKGRFTISKTSSTTVTLQMTSLTAADTATYFCARNGAYAGGPYGDLWGPGTLVTVSS
VL: DIVMTQTPSSVEAAVGGTVTIKCQASQSIRTSLVWYQQKPGQPPKLLIYKASDLPSGVPSRFKGSGSGTQFTLTISDLECADAATYYCQSYDFRDTINNGHSFGGGTEVVVKG
notes: Rabbit monoclonal IgG from a hybridoma subclone, detected with anti-rabbit IgG; Only VH and VL are tied to the clone by name; also called mAb119-4

Legend:
[1] = target: T1, APG293 (human CD95L-T4); test: cell-based or functional assay
[2] = target: T2, peptide C-YMRNSKY; test: peptide ELISA, peptide on BSA or ovalbumin coated
Experimental: (§1) Binding of the rabbit monoclonal antibody was detected by incubation with goat anti rabbit IgG-Peroxidase (Sigma; dilution 1:5000) and subsequent detection of the converted Peroxidase-substrate TMBone at a wavelength of 450 nm in an ELISA reader (FIG. 13).
Binding of the rabbit monoclonal antibody was detected by incubation with goat anti rabbit IgG-Peroxidase (Sigma; dilution 1:5000) and subsequent detection of the converted Peroxidase-substrate TMBone at a wavelength of 450 nm in an ELISA reader (FIG. 14).

[3] = target: T3, epitope-comprising peptide YMRNSKYPQD; test: QCM (Attana A100), peptide-BSA immobilized, antibody as analyte
Experimental: The A100 allows to investigate molecular interactions in real-time based on the Quartz Crystal Microbalance (QCM) technique. For this purpose, the respective epitope comprising peptide was coupled to BSA and subsequently immobilized to the surface of a carboxyl-activated QCM-chip. […] Binding (kₒₙ) and dissociation (koff) was analyzed in real time, and the respective KD was calculated (see table in FIG. 16).

[4] = target: T4, APG296 (human CD95L-RB69); test: ELISA, APG296 coated
[5] = target: T5, epitope-comprising peptide YMRNSKYPQD; test: QCM; immobilized BSA-coupled peptide
[6] = target: T6, APG707 (LIGHT-RB69); test: competition ELISA, APG296 coated, APG707 as soluble competitor
Experimental: as §1, with “For the competition ELISA, 96-well microtiter plates were coated with 10 μg/ml APG296 (CD95L-RB69). […] Binding” for “Binding”, “antibodies” for “antibody”, “6).” for “13).”

Binder | EC50, Assay 1: antagonism of CD95L-T4-induced apoptosis on Jurkat A3 cells [1] [µg/mL] | EC50, Assay 2: antagonism of CD95L-T4-induced apoptosis on Jurkat A3 cells [1] [µg/mL] | EC50, Assay 3: antagonism of CD95L-T4-induced apoptosis on Jurkat A3 cells [1] [µg/mL] | EC50, Assay 4: antagonism of CD95L-T4-induced apoptosis on Jurkat A3 cells [1] [µg/mL] | EC50, Mean: antagonism of CD95L-T4-induced apoptosis on Jurkat A3 cells [1] [µg/mL] | binding result [2] | binding result [3] | binding result [4] | Kd [5] [nM] | binding result [6]
B1 | 0.187 | 0.198 | 0.225 | 0.192 | 0.201 | no binding (tested: 2 µg/ml) | binds | binds | 7.22 | no binding (tested: 100 µg/ml)
B2 | – | – | – | – | – | no binding (tested: 2 µg/ml) | binds | – | 1.2 | no binding (tested: 100 µg/ml)
